Publication PMC4912634 (2016)
Changes are numbered by the printed parent chain. Names may count otherwise. Blank lines part the entries; values can stand above or below the binder they belong to.

Experiments:
[1] = biological target: DARPin-tubulin complex (used in ITC) ( (porcine or bovine brain), UniProt Q6B856 1-445); assay: ITC
[2] = biological target: tubulin heterodimer (porcine/bovine brain tubulin) ( (porcine or bovine brain), UniProt Q6B856 1-445); assay: ITC
tubulin heterodimer (porcine/bovine brain tubulin), sequence (chain, as listed by the source, chain 1 of 2): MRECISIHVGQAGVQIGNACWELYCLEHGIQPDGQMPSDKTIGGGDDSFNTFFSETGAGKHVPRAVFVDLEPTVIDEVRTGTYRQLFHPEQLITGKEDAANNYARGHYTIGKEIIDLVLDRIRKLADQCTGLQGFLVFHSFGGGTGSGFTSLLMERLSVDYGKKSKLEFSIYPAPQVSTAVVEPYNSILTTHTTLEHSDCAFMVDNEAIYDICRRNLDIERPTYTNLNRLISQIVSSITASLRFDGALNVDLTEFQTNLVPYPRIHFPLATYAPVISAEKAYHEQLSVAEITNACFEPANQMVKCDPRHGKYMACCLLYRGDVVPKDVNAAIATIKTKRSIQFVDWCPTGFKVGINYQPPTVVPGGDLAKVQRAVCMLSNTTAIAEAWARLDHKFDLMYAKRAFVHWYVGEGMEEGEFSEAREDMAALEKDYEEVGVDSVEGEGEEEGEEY
tubulin heterodimer (porcine/bovine brain tubulin), sequence (Q6B856 whole entry, chain 2 of 2): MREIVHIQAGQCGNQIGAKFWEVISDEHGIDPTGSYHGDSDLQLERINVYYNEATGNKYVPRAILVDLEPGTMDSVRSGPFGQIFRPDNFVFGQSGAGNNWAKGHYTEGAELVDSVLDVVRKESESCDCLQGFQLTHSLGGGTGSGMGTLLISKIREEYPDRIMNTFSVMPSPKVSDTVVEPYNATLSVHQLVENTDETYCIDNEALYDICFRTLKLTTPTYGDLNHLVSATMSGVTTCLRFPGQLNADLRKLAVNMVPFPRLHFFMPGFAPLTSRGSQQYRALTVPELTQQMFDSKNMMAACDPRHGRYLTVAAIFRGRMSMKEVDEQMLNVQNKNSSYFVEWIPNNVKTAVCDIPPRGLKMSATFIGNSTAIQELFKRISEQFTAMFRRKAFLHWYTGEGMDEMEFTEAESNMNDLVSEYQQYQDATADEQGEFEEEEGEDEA

DARPin-tubulin complex (used in ITC), sequence (chain, as listed by the source, chain 1 of 3): as the sequence (chain, as listed by the source, chain 1 of 2) above
DARPin-tubulin complex (used in ITC), sequence (Q6B856 whole entry, chain 2 of 3): as the sequence (Q6B856 whole entry, chain 2 of 2) above
DARPin-tubulin complex (used in ITC), sequence (chain, as listed by the source, chain 3 of 3): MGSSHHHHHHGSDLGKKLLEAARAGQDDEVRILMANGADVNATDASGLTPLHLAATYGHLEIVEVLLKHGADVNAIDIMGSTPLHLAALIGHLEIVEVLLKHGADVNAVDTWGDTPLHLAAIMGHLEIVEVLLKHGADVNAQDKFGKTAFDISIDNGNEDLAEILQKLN

B1: Y341A (protein)
chain: VANIEERPIKAAIGERKQTFEDALEEQIQLEEQELKQKQLKEAEGPLPIKAKPKQPFLKRGEGLARFTNAKSKFQK
- Kd [2]: 136 nM

B6: K372E (protein)
chain: B1 chain with A23Y, K54E
- Kd [2]: 400 nM

B8: K377E (protein)
chain: B1 chain with A23Y, K59E
- Kd [2]: 1300 nM

B9: F338A (protein)
chain: B1 chain with F20A, A23Y
- Kd [2]: 116 nM

Other lines, results leading:

- Kd [1]: 3400 nM
Binder: KQPFLKRGEGLARFTNAKSKFQK [PN2-3C peptide (PN2-3's C-terminus, aa 372-394 of CPAP)]

- Kd [2]: 800 nM
B2: R378E (protein)
chain: B1 chain with A23Y, R60E

- Kd [2]: 1900 nM
B3: R384E (protein)
chain: B1 chain with A23Y, R66E

- Kd [2]: 100 nM
B4: F385A (protein)
chain: B1 chain with A23Y, F67A

- Kd [2]: 143 nM
B5: ED339RR (protein)
chain: B1 chain with E21R, D22R, A23Y

- Kd [2]: 256 nM
B7: EE349RR (protein)
chain: B1 chain with A23Y, E31R, E32R
